Experimental data published in patent US20180022819A1, “COMPOSITIONS AND METHODS FOR COMBINATION THERAPY WITH PROSTATE-SPECIFIC MEMBRANE ANTIGEN BINDING PROTEINS” (APTEVO RESEARCH AND DEVELOPMENT LLC, priority 2015, published 2018).

Tests used:
[1] = tested on: LNCaP cells; assay: Effect of enzalutamide on redirected T-cell cytotoxicity in LNCaP cells expressing GFP (Example 1); format: cell-based, human; parameters: reduction of live target cells: dose or concentration left out as unconfirmed; conditions: TSC249 titration with T-cells and […] nM enzalutamide, compared to TSC249 and T-cells alone
Protocol: A titration of the anti-PSMA bispecific molecule TSC249 (protein sequence of SEQ ID NO: 78 in Table 3) was added to all sets of LNCaP cells in the amounts shown on the x-axis. T-cells and DMSO were added to the first set of LNCaP cells (leftmost set of bars). […] No T-cells and DMSO were added to the third set of LNCaP cells (set of bars second from the right). […] LNCaP cell growth (number of live cells) was measured by overall fluorescence and expressed as a fraction of live cells relative to the cells untreated with TSC249 on the y-axis.
LNCaP cells expressing GFP were cultured with donor T-cells at a 3:1 ratio of T-cells to LNCaP target cells for 4 days. […] DMSO alone was added to other samples. A titration of the anti-PSMA bispecific molecule TSC249 (protein sequence of SEQ ID NO: 78 in Table 3) was added to the cell cultures. LNCaP cell growth (number of live cells) was monitored by overall fluorescence.

[2] = tested on: 22Rv1 cells; assay: Chromium-51 release assay of redirected T-cell cytotoxicity against 22Rv1 cells (Example 5); format: cell-based, human; conditions: enzalutamide-treated 22Rv1 cells relative to untreated 22Rv1 cells
Protocol: FIG. 3 (top panel) is a graph showing the results of a chromium-51 release assay measuring the effectiveness of the anti-PSMA bispecific molecule TSC249 at inducing redirected T-cell cytotoxicity in 4 hours against enzalutamide-treated and untreated prostate cancer 22Rv1 cells. Percent specific lysis relative to a total lysis control is shown on the y-axis. Concentration (pM) of the anti-PSMA bispecific molecule TSC249 is shown on the x-axis.
To compare the sensitivity of enzalutamide-treated and untreated 22Rv1 prostate cancer cells to target-dependent T-cell cytotoxicity, a bispecific binding molecule targeting PSMA and CD3 was tested in a chromium (^51Cr) release assay using donor T-cells as effector cells. [See, e.g., US 2014/0161800 A1, which describes multispecific binding molecules that bind to prostate-specific membrane antigen (PSMA) and CD3.]
Cytotoxicity was assessed by a ^51Cr release assay. […]
Plates were incubated for 4 hours, spun at 225×g for 3 minutes, and 25 μL of supernatant was transferred from each well to the corresponding well of a 96-well LUMAPLATE® sample plate (Perkin Elmer). Sample plates were allowed to air dry in a chemical safety hood for 18 hours, and then radioactivity was read on a Topcount scintillation counter using a standard protocol. […]

[3] = tested on: LNCaP cells; assay: Growth inhibition of LNCaP-GFP cells with primary human T-cells, 4 days, with combination index analysis (Example 6); format: cell-based
Protocol: Additional procedures are described in Example 6. Percentage of live cells relative to an untreated control is shown on the y-axis.
Combination indices can indicate additive effects (CI=1), synergism (CI<1), or antagonism (CI>1).
Overall fluorescent signal from GFP enabled the quantitation of living LNCaP target cells in isolation from T-cells. […] TSC249 was added to have final concentrations of 125, 62.5, 31.25, 15.6, 7.8, 3.9, or 1.95 pM, or none. T-cells from several donors were used in replicate experiments, added at a ratio of 45,000 T-cells to 15,000 LNCaP cells per well.
After 4 days culture at 37° C. in 5% CO2, media was aspirated from wells and […] of 0.4% NP-40 was added to each well. Fluorescent signal from GFP in LNCaP cells adherent in wells was detected by a Spectramax plate reader, reading from the bottom of the wells. […]
The combination index theorem developed by Chou and Talalay was used to determine the interaction between the two compounds in their anti-cancer activity (see Chou, Cancer Res. 2010 Jan. 15; 70(2):440-6; Chou, Pharmacol Rev. 2006 September; 58(3):621-81). For each plate, relative fluorescence units (RFU) of all wells were normalized to the RFU of the well containing cells only, i.e., the proportion of living LNCaP cells in each well was expressed in relation to untreated LNCaP cells. […] Mean values were calculated from three replicates. […]

[4] = tested on: PSMA; assay: Binding of FITC-labeled 107-1A4 to 22Rv1 cells by flow cytometry (Example 4); parameters: species or system human; conditions: 22Rv1 cells that were or were not incubated with enzalutamide
From the text: Mean fluorescence intensity (MFI) of bound molecules on live cells is shown on the y-axis. Concentration (nM) of the anti-PSMA monoclonal antibody 107-1A4 labeled with FITC is shown on the x-axis.
22Rv1 cells (PSMA+ at low level) were obtained from ATCC (Manassas, Va.) and cultured according to the ATCC protocol in RPMI-1640 media plus 10% FBS. […] All four cultures were harvested, stained for PSMA with FITC-labeled anti-PSMA monoclonal antibody 107-1A4 (Acris), and PSMA expression assayed by standard flow cytometry procedures. 22Rv1 cells were harvested with trypsin, and placed into FACS buffer (PBS+0.5% BSA [Equitech]+2 mM EDTA [Life Technologies]) at 1×10e6 per ml. FITC-107-1A4 was prepared at 36 nM in FACS buffer, and serially diluted 1:3, before adding 50 μl to 2×10e5 22Rv1 cells which had been pelleted in a 96 well plate. After 30 minute incubation on ice, cells were washed 3 times in FACS buffer, resuspended in FACS buffer, and data acquired on a BD LSRII flow cytometer. The sample files were analyzed using FlowJo software; the median fluorescence intensity (MFI) of the live population of 22Rv1 cells in each well was calculated after gating on live cells (forward vs side scatter). Median fluorescence intensities were fit to a 4-parameter logistic curve and graphed as concentration vs. MFI using GraphPad PRISM® software.

B1: TSC249: anti-PSMA bispecific molecule targeting PSMA and CD3; protein sequence of SEQ ID NO: 78 (protein)
chain: DIQMTQSPSAMSASVGDRVTITCRASKSISKYLAWFQQKPGKVPKLRIHSGSTLQSGVPSRFSGSGSGTEFTLTISSLQPEDFATYYCQQHIEYPWTFGQGTKVEIKRGGGGSGGGGSGGGGSQVQLVQSGAEVKKPGASVKVSCKASGYTFTDYYMHWVRQAPGQGLEWMGYFNPYNDYTRYAQKFQGRVTMTRDTSISTAYMELSSLRSDDTAVYYCARSDGYYDAMDYWGQGTTVTVSSSEPKSSDKTHTCPPCPAPEAAGAPSVFLFPPKPKDTLMISRTPEVTCVVVDVSHEDPEVKFNWYVDGVEVHNAKTKPREEQYNSTYRVVSVLTVLHQDWLNGKAYACAVSNKALPAPIEKTISKAKGQPREPQVYTLPPSRDELTKNQVSLTCLVKGFYPSDIAVEWESNGQPENNYKTTPPVLDSDGSFFLYSKLTVDKSRWQQGNVFSCSVMHEALHNHYTQKSLSLSPGQRHNNSSLNTGTQMAGHSPNSQVQLVESGGGVVQPGRSLRLSCKASGYTFTRSTMHWVRQAPGQGLEWIGYINPSSAYTNYNQKFKDRFTISADKSKSTAFLQMDSLRPEDTGVYFCARPQVHYDYNGFPYWGQGTPVTVSSGGGGSGGGGSGGGGSAQDIQMTQSPSSLSASVGDRVTMTCSASSSVSYMNWYQQKPGKAPKRWIYDSSKLASGVPARFSGSGSGTDYTLTISSLQPEDFATYYCQQWSRNPPTFGGGTKLQITSSS
modifications: Humanized TSC249 Scorpion (huVL-VH#2 107-1A4 scFv-Fc-DRA222 scFv)
With B1 the “reduction of live target cells” value [1] was “higher dose-dependent reduction of live target cells”, the “specific lysis from T-cell directed cytotoxicity” value [2] was “increase in specific lysis” and the “interaction by combination index (Chou and Talalay)” value ([3]; 1.95-31.25 pM TSC249 at all enzalutamide concentrations used (39, 156, 625 nM)) was “Synergy”. For the same molecule, the “live cell signal when combined with the other drug” value ([3]; enzalutamide plus TSC249 over a wide range of concentrations, T-cells, 4 days) was “further decrease in live cell signal”.

B2: FITC-107-1A4: FITC-labeled anti-PSMA monoclonal antibody 107-1A4 (Acris) (antibody, V domains shown)
VH: EIQLQQSGPELVKPGASVKMSCKASGYTFTDYYMHWVKQNNGESLEWIGYFNPYNDYTRYNQNFNGKATLTVDKSSSTAYMQLNSLTSEDSAFYYCARSDGYYDAMDYWGQGTSVTVSS
VL: DVQITQSPSYLAASPGETITINCRASKSISKYLAWYQEKPGKANKLLIHSGSTLQSGIPSRFSGSGSGTDFTLTISSLEPEDFAMYYCQQHIEYPWTFGGGTKLEIKRA
With B2 the “ECso values determined from binding curves” value [4] was “no significant differences”.
